How the values were obtained:
GAL4-HIF-1α/526-826 = target: T1, GAL4-HIF-1α/526-826 (UniProt P04386 1-147; Q16665 526-826); assay: coimmunoprecipitation of 35S-IPAS with anti-GAL4 antibody, in vitro translated proteins
T1 construct: In vitro translated
Procedure: (§1) Precipitated fraction was analyzed by SDS PAGE and results were obtained by autoradiography.
(§2) After brief centrifugation, coimmunoprecipitated proteins were analyzed by SDS-PAGE.

GAL4 DBD = target: T2, GAL4 DBD (UniProt P04386 1-147, limits assumed); assay: as above
T2 construct: Control in the coprecipitation assay
Procedure: as §1, §2

B1: Inhibitory PAS Domain Protein (IPAS), in vitro translated (other)
chain: MALGLQRVRSNTELRKEKSRDAARSRRSQETEVLYQLAHTLPFARGVSAHLDKASIMRLTISYLRMHRLCAAGGKRGRATGRLLPEGPGGFRHGTHRRGRHGLPVGKCQQAPGPQSVDLCSSSLIHNPTPGTNFSLELIGHSIFDFIHPCDQEELQDALTPRPNLSKKKLEAPTERHFSLRMKSTLTSRGRTLNLKAATWKVLHCSGHMRAYKPPAQTSPAGSPRSEPPLQCLVLICEAIPQLPFHDGATLGLPQEKTPISTLFTPLWKALLCLVKRWPVQVLQGKGTESSLPSWVLWALNRKNCPG
modifications: 35S-labeled methionine (in the coprecipitation assay)
notes: Polypeptide of 307 amino acids; generated by in vitro translation in rabbit reticulocyte lysate; also called mouse IPAS; mIPAS
binding result (GAL4-HIF-1α/526-826): no binding | binding result (GAL4 DBD): no binding
